Test results taken from article doi:10.1101/2023.03.09.531992.

Biological target: full-length, extra-membrane clientized (Thr1273Glu) S tail, biotinylated (BLI) (SARS-CoV-2)
Assay: BLI

B1: S. pombe αWD40 domain (N-terminal WD40 domain of α-COPI), wild type (domain or fragment)
chain: MEMLTKFESRSSRAKGVAFHPTQPWILTSLHNGRIQLWDYRMGTLLDRFDGHDGPVRGIAFHPTQPLFVSGGDDYKVNVWNYKSRKLLFSLCGHMDYVRVCTFHHEYPWILSCSDDQTIRIWNWQSRNCIAILTGHSHYVMCAAFHPSEDLIVSASLDQTVRVWDISGLRMKNAAPVSMSLEDQLAQAHNSISNDLFGSTDAIVKFVLEGHDRGVNWCAFHPTLPLILSAGDDRLVKLWRMTASKAWEVDTCRGHFNNVSCCLFHPHQELILSASEDKTIRVWDLNRRTAVQTFRRDNDRFWFITVHPKLNLFAAAHDSGVMVFKLE
fold slower binding rate than the wild-type S tail: 2.4 fold | fold tighter binding than the wild-type S tail: 11 fold
